Results published in paper PMC10397247.

Assays:
Experiment in all cases: two-hybrid library CCNG1;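 also: natural log of median RNA to DNA barcode read ratio; higher means stronger binding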
4H850-bH = target: T1, 4H850-bH
T1 chain: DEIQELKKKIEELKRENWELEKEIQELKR

4H3817-bH = target: T2, 4H3817-bH
T2 chain: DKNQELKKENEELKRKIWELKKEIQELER

4H3631-bH = target: T3, 4H3631-bH
T3 chain: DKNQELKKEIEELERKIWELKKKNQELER

4H1899-bH = target: T4, 4H1899-bH
T4 chain: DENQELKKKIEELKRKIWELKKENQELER

4H3414-bH = target: T5, 4H3414-bH
T5 chain: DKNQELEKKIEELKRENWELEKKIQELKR

4H584-bH = target: T6, 4H584-bH
T6 chain: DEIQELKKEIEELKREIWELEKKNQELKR

4H1393-bH = target: T7, 4H1393-bH
T7 chain: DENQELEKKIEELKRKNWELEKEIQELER

4H3858-bH = target: T8, 4H3858-bH
T8 chain: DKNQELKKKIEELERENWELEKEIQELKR

4H1544-bH = target: T9, 4H1544-bH
T9 chain: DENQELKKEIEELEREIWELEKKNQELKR

4H1710-bH = target: T10, 4H1710-bH
T10 chain: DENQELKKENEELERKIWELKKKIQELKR

4H1338-bH = target: T11, 4H1338-bH
T11 chain: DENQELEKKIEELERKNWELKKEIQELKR

P8A-bN = target: T12, P8A-bN
T12 chain: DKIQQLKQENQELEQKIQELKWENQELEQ

4H3129-bH = target: T13, 4H3129-bH
T13 chain: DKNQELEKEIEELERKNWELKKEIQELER

4H619-bH = target: T14, 4H619-bH
T14 chain: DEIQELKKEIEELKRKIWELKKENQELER

4H3628-bH = target: T15, 4H3628-bH
T15 chain: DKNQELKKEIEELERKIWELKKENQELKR

P5bH1 = target: T16, P5bH1
T16 chain: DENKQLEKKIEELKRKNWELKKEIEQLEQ

4H1629-bH = target: T17, 4H1629-bH
T17 chain: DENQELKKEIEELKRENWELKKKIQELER

4H3974-bH = target: T18, 4H3974-bH
T18 chain: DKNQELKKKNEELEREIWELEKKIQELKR

4H906-bH = target: T19, 4H906-bH
T19 chain: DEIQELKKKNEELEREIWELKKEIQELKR

4H1804-bH = target: T20, 4H1804-bH
T20 chain: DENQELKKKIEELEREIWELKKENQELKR

4H570-bH = target: T21, 4H570-bH
T21 chain: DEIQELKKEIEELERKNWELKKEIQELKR

4H3613-bH = target: T22, 4H3613-bH
T22 chain: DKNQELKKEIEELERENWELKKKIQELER

O8-bN = target: T23, O8-bN
T23 chain: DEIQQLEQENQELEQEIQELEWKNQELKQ

4H1449-bH = target: T24, 4H1449-bH
T24 chain: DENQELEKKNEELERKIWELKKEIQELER

4H3189-bH = target: T25, 4H3189-bH
T25 chain: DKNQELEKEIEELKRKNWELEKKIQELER

4H3172-bH = target: T26, 4H3172-bH
T26 chain: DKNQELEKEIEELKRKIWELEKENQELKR

4H1373-bH = target: T27, 4H1373-bH
T27 chain: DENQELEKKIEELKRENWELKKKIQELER

4H1359-bH = target: T28, 4H1359-bH
T28 chain: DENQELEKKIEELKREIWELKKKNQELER

4H1985-bH = target: T29, 4H1985-bH
T29 chain: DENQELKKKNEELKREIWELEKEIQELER

4H1348-bH = target: T30, 4H1348-bH
T30 chain: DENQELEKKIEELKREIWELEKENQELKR

4H741-bH = target: T31, 4H741-bH
T31 chain: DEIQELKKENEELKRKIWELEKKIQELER

4H3638-bH = target: T32, 4H3638-bH
T32 chain: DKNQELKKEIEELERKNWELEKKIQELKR

4H1222-bH = target: T33, 4H1222-bH
T33 chain: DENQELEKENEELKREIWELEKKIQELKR

DENQELEKENEELKREIWELEKKIQELKR [4H1222-bH]
interaction score (4H850-bH): 0.372 | interaction score (4H3817-bH): 1.69 | interaction score (4H3631-bH): 0.426 | interaction score (4H1899-bH): 0.852 | interaction score (4H3414-bH): 0.0236 | interaction score (4H584-bH): 0.714 | interaction score (4H1393-bH): -0.624 | interaction score (4H3858-bH): -0.605 | interaction score (4H1544-bH): -2.53 | interaction score (4H1710-bH): 2.16 | interaction score (4H1338-bH): 0.196 | interaction score (P8A-bN): 2.04 | interaction score (4H3129-bH): 0.793 | interaction score (4H619-bH): -1.4 | interaction score (4H3628-bH): 0.758 | interaction score (P5bH1): 0.361 | interaction score (4H1629-bH): -0.0755 | interaction score (4H3974-bH): 1.38 | interaction score (4H906-bH): -0.362 | interaction score (4H1804-bH): 0.345 | interaction score (4H570-bH): 0.693 | interaction score (4H3613-bH): -1.34 | interaction score (O8-bN): -2.96 | interaction score (4H1449-bH): 1.19 | interaction score (4H3189-bH): -1.2 | interaction score (4H3172-bH): -0.665 | interaction score (4H1373-bH): -0.384 | interaction score (4H1359-bH): 0.083 | interaction score (4H1985-bH): 1.24 | interaction score (4H1348-bH): -0.0221 | interaction score (4H741-bH): -2.48 | interaction score (4H3638-bH): -0.0664 | interaction score (4H1222-bH): 0.735
